Measured values reported in PMC9987972, “Interaction of the periplasmic chaperone SurA with the inner membrane protein secretion (SEC) machinery” (Biochemical Journal, 2023).

T1: SurA (E. coli), P0ABZ6
T1 chain: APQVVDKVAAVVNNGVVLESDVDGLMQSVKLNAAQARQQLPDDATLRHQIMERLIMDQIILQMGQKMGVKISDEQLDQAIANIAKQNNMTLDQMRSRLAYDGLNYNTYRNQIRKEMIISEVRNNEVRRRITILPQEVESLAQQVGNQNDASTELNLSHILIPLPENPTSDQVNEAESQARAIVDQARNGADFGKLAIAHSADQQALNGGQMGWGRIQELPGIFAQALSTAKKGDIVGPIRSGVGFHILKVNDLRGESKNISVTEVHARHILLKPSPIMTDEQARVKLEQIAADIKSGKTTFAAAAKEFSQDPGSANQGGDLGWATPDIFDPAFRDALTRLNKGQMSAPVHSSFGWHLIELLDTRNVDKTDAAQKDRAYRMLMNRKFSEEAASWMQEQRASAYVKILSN


Assays:
SurA (E. coli), P0ABZ6 = molecular target: T1, SurA (E. coli), P0ABZ6; experiment: native gel or EMSA; NativePAGE Bis-Tris 3–12%; HTL 3.8 µM with SurA or SurA:OmpA at 1:3 molar ratio, or each alone, in TS130G (20 mM Tris-HCl pH ≈ 8, 130 mM NaCl, 10% glycerol) + 0.01% DDM-CL, 30 min at 30°C; bands excised and analysed by SDS–PAGE with silver staining; settings: remark: other sources report otherwise
[1] = molecular target: the molecule itself; experiment: as above

| stoichiometry N (SurA (E. coli), P0ABZ6) | Binder | stoichiometry N [1] |
| --- | --- | --- |
| 2 | SurA, P0ABZ6 21-428 (natural protein) APQVVDKVAAVVNNGVVLESDVDGLMQSVKLNAAQARQQLPDDATLRHQIMERLIMDQIILQMGQKMGVKISDEQLDQAIANIAKQNNMTLDQMRSRLAYDGLNYNTYRNQIRKEMIISEVRNNEVRRRITILPQEVESLAQQVGNQNDASTELNLSHILIPLPENPTSDQVNEAESQARAIVDQARNGADFGKLAIAHSADQQALNGGQMGWGRIQELPGIFAQALSTAKKGDIVGPIRSGVGFHILKVNDLRGESKNISVTEVHARHILLKPSPIMTDEQARVKLEQIAADIKSGKTTFAAAAKEFSQDPGSANQGGDLGWATPDIFDPAFRDALTRLNKGQMSAPVHSSFGWHLIELLDTRNVDKTDAAQKDRAYRMLMNRKFSEEAASWMQEQRASAYVKILSN |  |
|  | SurA–OmpA complex (complex, SurA, periplasmic chaperone, E. coli; as the chain of m2; OmpA, outer membrane protein, from pET11a-ompA; also called substrate-engaged SurA; occupied chaperone; source: E. coli BL21(DE3), made separately; OmpA pellet in 6 M urea mixed with SurA supernatant, urea dialysed away, purified (HisTrap, HiTrap Q; S200 SEC for the size exclusion experiments)) chain 1: APQVVDKVAAVVNNGVVLESDVDGLMQSVKLNAAQARQQLPDDATLRHQIMERLIMDQIILQMGQKMGVKISDEQLDQAIANIAKQNNMTLDQMRSRLAYDGLNYNTYRNQIRKEMIISEVRNNEVRRRITILPQEVESLAQQVGNQNDASTELNLSHILIPLPENPTSDQVNEAESQARAIVDQARNGADFGKLAIAHSADQQALNGGQMGWGRIQELPGIFAQALSTAKKGDIVGPIRSGVGFHILKVNDLRGESKNISVTEVHARHILLKPSPIMTDEQARVKLEQIAADIKSGKTTFAAAAKEFSQDPGSANQGGDLGWATPDIFDPAFRDALTRLNKGQMSAPVHSSFGWHLIELLDTRNVDKTDAAQKDRAYRMLMNRKFSEEAASWMQEQRASAYVKILSN chain 2: APKDNTWYTGAKLGWSQYHDTGFINNNGPTHENQLGAGAFGGYQVNPYVGFEMGYDWLGRMPYKGSVENGAYKAQGVQLTAKLGYPITDDLDIYTRLGGMVWRADTKSNVYGKNHDTGVSPVFAGGVEYAITPEIATRLEYQWTNNIGDAHTIGTRPDNGMLSLGVSYRFGQGEAAPVVAPAPAPAPEVQTKHFTLKSDVLFNFNKATLKPEGQAALDQLYSQLSNLDPKDGSVVVLGYTDRIGSDAYNQGLSERRAQSVVDYLISKGIPADKISARGMGESNPVTGNTCDNVKQRAALIDCLAPDRRVEIEVKGIKDVVTQPQA | 2 |
